Sequences and labels used below:
B1: human prolyl 3-hydroxylase 1 (P3H1) (enzyme, UniProt Q32P28-1 23-736, looked up)
chain: EVESEAGWGMVTPDLLFAEGTAAYARGDWPGVVLSMERALRSRAALRALRLRCRTQCAADFPWELDPDWSPSPAQASGAAALRDLSFFGGLLRRAACLRRCLGPPAAHSLSEEMELEFRKRSPYNYLQVAYFKINKLEKAVAAAHTFFVGNPEHMEMQQNLDYYQTMSGVKEADFKDLETQPHMQEFRLGVRLYSEEQPQEAVPHLEAALQEYFVAYEECRALCEGPYDYDGYNYLEYNADLFQAITDHYIQVLNCKQNCVTELASHPSREKPFEDFLPSHYNYLQFAYYNIGNYTQAVECAKTYLLFFPNDEVMNQNLAYYAAMLGEEHTRSIGPRESAKEYRQRSLLEKELLFFAYDVFGIPFVDPDSWTPEEVIPKRLQEKQKSERETAVRISQEIGNLMKEIETLVEEKTKESLDVSRLTREGGPLLYEGISLTMNSKLLNGSQRVVMDGVISDHECQELQRLTNVAATSGDGYRGQTSPHTPNEKFYGVTVFKALKLGQEGKVPLQSAHLYYNVTEKVRRIMESYFRLDTPLYFSYSHLVCRTAIEEVQAERKDDSHPVHVDNCILNAETLVCVKEPPAYTFRDYSAILYLNGDFDGGNFYFTELDAKTVTAEVQPQCGRAVGFSSGTENPHGVKAVTRGQRCAIALWFTLDPRHSERDRVQADDLVKMLFSPEEMDLSQEQPLDAQQGPPEPAQESLSGSESKPKDEL
B3: human cartilage-associated protein (CRTAP), strep-tagged (natural protein, UniProt O75718 27-401, looked up)
chain: QYERYSFRSFPRDELMPLESAYRHALDKYSGEHWAESVGYLEISLRLHRLLRDSEAFCHRNCSAAPQPEPAAGLASYPELRLFGGLLRRAHCLKRCKQGLPAFRQSQPSREVLADFQRREPYKFLQFAYFKANNLPKAIAAAHTFLLKHPDDEMMKRNMAYYKSLPGAEDYIKDLETKSYESLFIRAVRAYNGENWRTSITDMELALPDFFKAFYECLAACEGSREIKDFKDFYLSIADHYVEVLECKIQCEENLTPVIGGYPVEKFVATMYHYLQFAYYKLNDLKNAAPCAVSYLLFDQNDKVMQQNLVYYQYHRDTWGLSDEHFQPRPEAVQFFNVTTLQKELYDFAKENIMDDDEGEVVEYVDDLLELEETS

For data set [1], the target named is B3. As to the kind of experiment: cryo-EM structure.
The data set “SEC” deals with the molecule itself. As to the kind of experiment: SEC. (In gel filtration, larger molecules generally elute earlier.)
The target in data set [2] is B1. As to the kind of experiment: cryo-EM structure.

Consider four molecules from article PMC11381544 (Nature Communications, 2024).

In the case of B1, the “stoichiometry N” value in data set [1] was determined as 1.

B2: PCP complex with mutation W675L of P3H1 (complex)
chain 1: EVESEAGWGMVTPDLLFAEGTAAYARGDWPGVVLSMERALRSRAALRALRLRCRTQCAADFPWELDPDWSPSPAQASGAAALRDLSFFGGLLRRAACLRRCLGPPAAHSLSEEMELEFRKRSPYNYLQVAYFKINKLEKAVAAAHTFFVGNPEHMEMQQNLDYYQTMSGVKEADFKDLETQPHMQEFRLGVRLYSEEQPQEAVPHLEAALQEYFVAYEECRALCEGPYDYDGYNYLEYNADLFQAITDHYIQVLNCKQNCVTELASHPSREKPFEDFLPSHYNYLQFAYYNIGNYTQAVECAKTYLLFFPNDEVMNQNLAYYAAMLGEEHTRSIGPRESAKEYRQRSLLEKELLFFAYDVFGIPFVDPDSWTPEEVIPKRLQEKQKSERETAVRISQEIGNLMKEIETLVEEKTKESLDVSRLTREGGPLLYEGISLTMNSKLLNGSQRVVMDGVISDHECQELQRLTNVAATSGDGYRGQTSPHTPNEKFYGVTVFKALKLGQEGKVPLQSAHLYYNVTEKVRRIMESYFRLDTPLYFSYSHLVCRTAIEEVQAERKDDSHPVHVDNCILNAETLVCVKEPPAYTFRDYSAILYLNGDFDGGNFYFTELDAKTVTAEVQPQCGRAVGFSSGTENPHGVKAVTRGQRCAIALLFTLDPRHSERDRVQADDLVKMLFSPEEMDLSQEQPLDAQQGPPEPAQESLSGSESKPKDEL
chain 2: QYERYSFRSFPRDELMPLESAYRHALDKYSGEHWAESVGYLEISLRLHRLLRDSEAFCHRNCSAAPQPEPAAGLASYPELRLFGGLLRRAHCLKRCKQGLPAFRQSQPSREVLADFQRREPYKFLQFAYFKANNLPKAIAAAHTFLLKHPDDEMMKRNMAYYKSLPGAEDYIKDLETKSYESLFIRAVRAYNGENWRTSITDMELALPDFFKAFYECLAACEGSREIKDFKDFYLSIADHYVEVLECKIQCEENLTPVIGGYPVEKFVATMYHYLQFAYYKLNDLKNAAPCAVSYLLFDQNDKVMQQNLVYYQYHRDTWGLSDEHFQPRPEAVQFFNVTTLQKELYDFAKENIMDDDEGEVVEYVDDLLELEETS
chain 3: not shown
Regarding B2, the binding result in the data set “SEC” is given as “binds”.

For the molecule B3, the binding result in data set [2] is on record as “binds”.

B4: human peptidyl-prolyl cis-trans isomerase B (PPIB), flag-tagged (enzyme)
chain: not shown
Consider B4, for which the “stoichiometry N” value in data set [1] and in data set [2] was 1 each time.

One may read the stoichiometry N as the number of molecules, sites or subunits per partner or assembly.
